Results as given in article doi:10.1101/215566.
pKd: −log10 of the molar value.

Target: CBD-NpuDnaE_(NΔ16)
Experiment: SPR

NpuDnaEC16-eGFP (domain or fragment)
pKd: 8.80
